Measured values reported in US5427937.

Molecular target: purified human coagulation factor Xa (human) (UniProt P00742)

Question: “crude soluble hookworm protein extract (Ancylostoma caninum adult worms) (pool or library)” was tested. Which factor Xa activity (chromogenic assay, hydrolysis of Chromozym X) did it give?
Answer: The factor Xa activity (chromogenic assay, hydrolysis of Chromozym X) was 50 % reduction.
